The record followed here is PMC6192996, “Loss of a conserved salt bridge in bacterial glycosyl hydrolase BgIM-G1 improves substrate binding in temperate environments” (Communications Biology, 2018).

The subject of series [1] is C[C@H]1O[C@@H](Oc2ccc([N+](=O)[O-])cc2)[C@H](O)[C@@H](O)[C@H]1O. In words: purified protein. The note with it: 100 mM sodium citrate pH 6.0, 45 °C.
Series [2] relates to O=[N+]([O-])c1ccc(O[C@@H]2O[C@H](CO)[C@@H](O)[C@H](O)[C@H]2O)cc1. In words: purified protein. The note with it: 100 mM sodium citrate pH 6.0, 45 °C.
For series [3], the target named is T1, BglM-G1 (marine metagenome, UniProt Z9E642Q5N2).
T1 construct: codon-optimised synthetic gene in pOE, E. coli BL21(DE3); N-terminal MHHHHHHENLYFQGH tag TEV-cleaved, scar GH; theoretical mass 49,874 Da; monomer in solution
T1 sequence (Z9E642Q5N2 16-455 H90R): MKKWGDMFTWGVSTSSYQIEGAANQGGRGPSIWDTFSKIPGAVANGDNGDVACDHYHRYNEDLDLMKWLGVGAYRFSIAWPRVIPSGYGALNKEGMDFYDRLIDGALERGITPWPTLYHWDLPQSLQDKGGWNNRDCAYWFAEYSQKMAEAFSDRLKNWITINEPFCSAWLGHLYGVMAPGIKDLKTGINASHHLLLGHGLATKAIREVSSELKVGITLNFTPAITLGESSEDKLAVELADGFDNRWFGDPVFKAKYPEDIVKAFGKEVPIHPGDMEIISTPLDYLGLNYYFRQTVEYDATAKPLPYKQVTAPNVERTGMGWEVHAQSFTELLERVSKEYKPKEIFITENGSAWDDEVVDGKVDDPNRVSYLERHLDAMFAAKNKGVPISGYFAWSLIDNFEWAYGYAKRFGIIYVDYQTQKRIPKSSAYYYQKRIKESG
In words: X-ray crystal structure, […] Å, soaked crystals. Type of series: binding. The note with it: 6 mM ligand soak 24 h, pH 7.5, 18 °C; active site.

Consider BglM-G1 (marine metagenome), for which, in series [1], the Km (as a rule, the concentration of substrate that gives half-maximal velocity) came out at 88 ± 38 µM; the kcat (usually the maximal rate divided by the concentration of active sites) came out at 41.4 ± 3 s⁻¹; the kcat/Km (usually the second-order rate constant that governs catalysis at low substrate concentration) turned out to be 519000 ± 146000 M⁻¹ s⁻¹. Besides, in series [2], the Km was determined as 135 ± 16 µM, the kcat came out at 55.6 ± 1.5 s⁻¹ and the kcat/Km came to 417000 ± 44000 M⁻¹ s⁻¹.

As to `OC[C@H]1NC[C@H](O)[C@@H](O)[C@@H]1O` [1-deoxynojirimycin], the “X-ray crystal structure, 1.55 Å, soaked crystals” value in series [3] is on record as “we co-crystallized the H75R variant with the glucosidase inhibitor 1-deoxynojirimycin”.
